Experiment [1] has as its target T1, SIRPα V1-his (ACRO, Cat #SIA-H5225) (human, UniProt P78324 31-370).
T1 construct: not shown: His tag
Briefly: SPR (Biacore), antibody captured by anti-Fc on CM5, 50 nM SIRPα V1-his injected, 1:1 model. The procedure: Using the Biacore analysis system, activators were prepared by mixing 400 mM EDC and 100 mM NHS and activated with a CM5 sensor chip at a flow rate of 10 μL/min for 420 s. Anti-Fc antibody at 30 μg/mL dissolved in 10 mM NaAc (pH 4.5) was injected into the channel at a flow rate of 10 μL/min and then closed with 1 M ethanolamine-HCl at a flow rate of 10 μL/min for 420 s. […] All experimental data were fitted using a 1:1 binding model.
(Surface plasmon resonance follows binding to a sensor surface in real time, without labels.)

Experiment [2] addresses T2, SIRPα-V1 on 293T-SIRPα-V1 cells (human, UniProt P78324 31-504).
T2 construct: Stably transfected cell line
Briefly: FACS titration on 293T-SIRPα-V1 cells, goat anti-hIgG-AF488 (panel SIRPα-V1). The procedure:
After washing, cells were stained by 0.2 μg of goat anti-hIgG-AF488 at 4° C. for 30 min, resuspended in […] of DPBS/1% FBS, and analyzed by FlowJo V10 and GraphPad Prism6 software.

Experiment [3] concerns the target T2, SIRPα-V1 on 293T-SIRPα-V1 cells. Briefly: competition FACS: 293T-SIRPα-V1 cells, antibody titrated against CD47-FITC, % of blocking (panel SIRPα-V1-CD47). The procedure: After washing, cells were analyzed by utilizing FlowJo V10 and GraphPad Prism6 software.
Experiment [4] has as its target T1, SIRPα V1-his (ACRO, Cat #SIA-H5225). Briefly: competition ELISA: coated SIRPα-V1-his, antibody titrated against biotin-CD47, streptavidin-HRP (panel SIRPα-V1-CD47). The procedure:
100 μL of 1 μg/mL of recombinant SIRPα-V1-his and SIRPα-V2-his were coated overnight at 4° C. in Maxisorp ELISA 96-well plates. […] After washing, each well was added with 0.2 μg Streptavidin-HRP, substrate TMB, and read by an enzyme marker.

Experiment [5] has the same target. Briefly: ELISA: coated SIRPα-V1-his, antibody titrated, goat anti-hIgG Fc HRP (panel SIRPα-V1). The procedure: 100 μL of 1 μg/mL of SIRPα-V1-his, SIRPα-V2-his and SIRPα-V8-his (Sino Biological, Cat #30015-H08H) were coated overnight at 4° C. in Maxisorp ELISA 96-well plates. […] After washing, 100 μL of 1:5000 dilution of goat Anti-hIgG Fc HRP (Invitrogen, Cat #A18823) was added to each well and incubated for 1 h. TMB substrate was used for color development and enzyme marker readings.
For orientation: In an ELISA, binding on a coated surface is turned into a signal by an enzyme label.

Experiment [6] has the same target. The experiment in a line: BLI (ForteBio Octet RED 96): SIRPα V1-his on Ni-NTA biosensor, antibody in a 1:2 series of 7 concentrations (row SIRPα-V1). The procedure: 5 μg/mL SIRPα V1-his and SIRPα V2-his was loaded to a Ni-NTA biosensor for 600 s, respectively. […] The binding time was 200 s and the dissociation time was 600 s. The data were fitted to calculate the affinity.

T1 sequence (P78324 31-370 limits assumed): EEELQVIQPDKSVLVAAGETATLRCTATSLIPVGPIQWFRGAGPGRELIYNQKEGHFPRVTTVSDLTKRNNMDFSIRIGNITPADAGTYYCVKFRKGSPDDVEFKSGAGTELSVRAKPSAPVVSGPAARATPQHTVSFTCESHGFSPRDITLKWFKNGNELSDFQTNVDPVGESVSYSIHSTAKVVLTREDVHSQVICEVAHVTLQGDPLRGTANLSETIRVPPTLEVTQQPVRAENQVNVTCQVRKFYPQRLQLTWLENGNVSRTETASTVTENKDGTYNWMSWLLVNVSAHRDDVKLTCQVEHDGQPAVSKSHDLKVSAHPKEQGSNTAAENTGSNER
T2 sequence (P78324 31-504): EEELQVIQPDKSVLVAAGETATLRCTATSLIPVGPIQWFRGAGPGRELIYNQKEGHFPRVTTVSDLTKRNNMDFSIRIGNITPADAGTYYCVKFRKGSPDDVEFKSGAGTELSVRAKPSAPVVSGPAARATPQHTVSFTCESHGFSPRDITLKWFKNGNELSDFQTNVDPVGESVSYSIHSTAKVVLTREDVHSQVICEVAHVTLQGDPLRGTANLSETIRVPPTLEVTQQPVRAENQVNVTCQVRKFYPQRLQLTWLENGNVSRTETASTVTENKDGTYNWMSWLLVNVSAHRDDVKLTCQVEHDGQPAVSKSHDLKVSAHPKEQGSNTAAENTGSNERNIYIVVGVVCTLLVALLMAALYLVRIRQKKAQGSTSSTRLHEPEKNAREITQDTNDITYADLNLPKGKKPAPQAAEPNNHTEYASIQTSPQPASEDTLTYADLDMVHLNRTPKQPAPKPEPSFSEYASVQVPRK

B1: Z6 (antibody, IgG1, V domains shown)
VH: QVQLQESGPGLVKPSQTLSLTCTVSGFSLTGYGVNWIRQPPGKGLEWIGIIWGDGSTDYNSALKSRVTISKDTSKNQVFLKLSSVTAADTAVYYCARAGKMDYWGQGTTVTVSS
VL: DIVLTQSPASLAVSPGQRATITCRASESVDSYGNSFMHWYQQKPGQPPKPLIYLASNLESGVPARFSGSGSRTDFTLTINPVEANDAANYYCQQNNEYPWTFGGGTKVEIK
notes: also called humanized variant Z6
One may read the Kd as the concentration at which binding is half-saturated. Lower therefore signals tighter binding. One may read the koff as a measure of how fast the partners let go of each other. Read a high koff as a short-lived complex. By kon is commonly meant the second-order rate constant of association. A lower kon goes with slow association. With B1, in experiment [1], the Kd worked out at 2.34 nM, the off-rate (koff) amounted to 0.00165 s⁻¹ and the kon worked out at 708000 M⁻¹ s⁻¹.

B2: Z8 (antibody, IgG1, V domains shown)
VH: QVQLQESGPGLVKPSQTLSLTCTVSGFSLTGYGVNWIRQPPGKGLEWIGIIWGDGSTDYNSALKSRVTISKDTSKNQVFLKLSSVTADDTARYYCARAGKMDYWGQGTTVTVSS
VL: DIVLTQSPASLAVSPGQRATITCRASESVDSYGNSFMHWYQQKPGQPPKLLIYLASNLESGVPARFSGSGSRTDFTLTINPVEANDAANYYCQQNNEYPWTFGGGTKVEIK
notes: also called humanized variant Z8
Turning to B2, in experiment [1], the dissociation constant (Kd) amounted to 25.3 nM, the dissociation rate constant (koff) was found to be 0.0194 s⁻¹ and the kon came to 768000 M⁻¹ s⁻¹.

B3: Z3 (antibody, IgG1, V domains shown)
VH: QVQLQESGPGLVKPSQTLSLTCTVSGFSLTGYGVNWIRQPPGKGLEWIGIIWGDGSTDYNSALKSRVTISVDTSKNQVFLKLSSVTAADTAVYYCARAGKMDYWGQGTTVTVSS
VL: DIVLTQSPASLAVSPGQRATITCRASESVDSYGNSFMHWYQQKPGQPPKPLIYLASNLESGVPARFSGSGSRTDFTLTINPVEANDAANYYCQQNNEYPWTFGGGTKVEIK
notes: also called humanized variant Z3
In experiment [1], B3 came in with a Kd of 4.17 nM, a koff of 0.00292 s⁻¹ and a kon of 699000 M⁻¹ s⁻¹.

B4: Z7 (antibody, IgG1, V domains shown)
VH: QVQLQESGPGLVKPSQTLSLTCTVSGFSLTGYGVNWIRQPPGKGLEWIGIIWGDGSTDYNSALKSRVTISKDTSKNQVFLKLSSVTADDTARYYCARAGKMDYWGQGTTVTVSS
VL: DIVLTQSPASLAVSPGQRATITCRASESVDSYGNSFMHWYQQKPGQPPKPLIYLASNLESGVPARFSGSGSGTDFTLTINPVEANDAANYYCQQNNEYPWTFGGGTKVEIK
notes: also called humanized variant Z7
In experiment [1], B4 registered a Kd of 2.01 nM, a koff of 0.00151 s⁻¹ and an on-rate constant (kon) of 754000 M⁻¹ s⁻¹.

B5: Z1 (antibody, IgG1, V domains shown)
VH: QVQLQESGPGLVKPSQTLSLTCTVSGFSLTGYGVNWIRQPPGKGLEWIGIIWGDGSTDYNSALKSRVTISVDTSKNQVFLKLSSVTAADTAVYYCARAGKMDYWGQGTTVTVSS
VL: DIVLTQSPASLAVSPGQRATITCRASESVDSYGNSFMHWYQQKPGQPPKPLIYLASNLESGVPARFSGSGSGTDFTLTINPVEANDAANYYCQQNNEYPWTFGGGTKVEIK
notes: also called humanized variant Z1
Regarding B5, in experiment [1], the Kd was 3.61 nM, the koff came out at 0.00269 s⁻¹ and the kon is 744000 M⁻¹ s⁻¹.

B6: Z5 (antibody, IgG1, V domains shown)
VH: QVQLQESGPGLVKPSQTLSLTCTVSGFSLTGYGVNWIRQPPGKGLEWIGIIWGDGSTDYNSALKSRVTISKDTSKNQVFLKLSSVTAADTAVYYCARAGKMDYWGQGTTVTVSS
VL: DIVLTQSPASLAVSPGQRATITCRASESVDSYGNSFMHWYQQKPGQPPKLLIYLASNLESGVPARFSGSGSRTDFTLTINPVEANDAANYYCQQNNEYPWTFGGGTKVEIK
notes: also called humanized variant Z5
As to B6, in experiment [1], the equilibrium dissociation constant (Kd) amounted to 27.8 nM, the koff is 0.0208 s⁻¹ and the kon stood at 747000 M⁻¹ s⁻¹.

B7: Z4 (antibody, IgG1, V domains shown)
VH: QVQLQESGPGLVKPSQTLSLTCTVSGFSLTGYGVNWIRQPPGKGLEWIGIIWGDGSTDYNSALKSRVTISKDTSKNQVFLKLSSVTAADTAVYYCARAGKMDYWGQGTTVTVSS
VL: DIVLTQSPASLAVSPGQRATITCRASESVDSYGNSFMHWYQQKPGQPPKPLIYLASNLESGVPARFSGSGSGTDFTLTINPVEANDAANYYCQQNNEYPWTFGGGTKVEIK
notes: also called humanized variant Z4
In experiment [1], B7 displayed a dissociation constant Kd of 1.98 nM, a koff of 0.00154 s⁻¹ and a kon of 775000 M⁻¹ s⁻¹.

B8: Z9 (antibody, IgG1, V domains shown)
VH: QVQLQESGPGLVKPSQTLSLTCTVSGFSLTGYGVNWIRQPPGKGLEWIGIIWGDGSTDYNSALKSRVTISKDTSKNQVFLKLSSVTADDTARYYCARAGKMDYWGQGTTVTVSS
VL: DIVLTQSPASLAVSPGQRATITCRASESVDSYGNSFMHWYQQKPGQPPKPLIYLASNLESGVPARFSGSGSRTDFTLTINPVEANDAANYYCQQNNEYPWTFGGGTKVEIK
notes: also called humanized variant Z9
In experiment [1], B8 came in with a dissociation constant Kd of 2.27 nM, an off-rate (koff) of 0.0016 s⁻¹ and a kon of 708000 M⁻¹ s⁻¹.

B9: BI 765063 (antibody, V domains shown)
VH: EVQLVQSGAEVKKPGESLRISCKASGYSFTSYWVHWVRQMPGKGLEWMGNIDPSDSDTHYSPSFQGHVTLSVDKSISTAYLQLSSLKASDTAMYYCVRGGTGTLAYFAYWGQGTLVTVSS
VL: DVVMTQSPLSLPVTLGQPASISCRSSQSLVHSYGNTYLYWFQQRPGQSPRLLIYRVSNRFSGVPDRFSGSGSGTDFTLKISRVEAEDVGVYYCFQGTHVPYTFGGGTKVEIKR
Usually EC50 (read off the curve) stands for the concentration at which the effect is half-maximal. B9: the 50% effective concentration (EC50 (read off the curve)) in experiment [2] is about 1 nM; in experiment [5] it was about 0.05 nM. Moreover, the “IC50 (read off the curve)” value was about 0.3 nM in experiment [3] and about 4 nM in experiment [4]. Also, the dissociation constant (Kd) in experiment [6] is under 0.001 nM. The same molecule gave a koff in experiment [6] of under 1e-07 s⁻¹.
